doi:10.1101/2022.08.19.504532 (bioRxiv, 2022)
Where “and” joins values, the source holds several entries; their conditions need not be identical. Equal entries are not always repeated.

Columns and labels:
[1] = target: FLAG-BIRC6 (full-length baculoviral IAP repeat-containing protein 6) (human) (UniProt Q9NR09); test: cryo-EM structure; conditions: remark: other sources report otherwise
[2] = target: 3xFLAG-BIRC6 (full-length, wild type) (human) (UniProt Q9NR09); test: FRET or BRET
[3] = target: 3xFLAG-BIRC6 BIRmut (C328S/C331S) (human, UniProt Q9NR09 1-4857, C328S | C331S); test: FRET or BRET
[4] = target: 3xFLAG-BIRC6 ΔHelix (aa1616-1666 removed) (human, UniProt Q9NR09 1-4857, ΔHelix, aa1616-1666 removed); test: FRET or BRET
[5] = target: 3xFLAG-BIRC6 (full-length, wild type) (human, UniProt Q9NR09 1-4857); test: FRET or BRET
[6] = target: FLAG-BIRC6 (full-length baculoviral IAP repeat-containing protein 6) (human, UniProt Q9NR09 1-4857); test: cryo-EM structure
[7] = target: the molecule itself; test: cryo-EM structure

Work on “FLAG-BIRC6 (full-length baculoviral IAP repeat-containing protein 6), Q9NR09 1-4857” yielded a stoichiometry N [1] of 2.

“BODIPY-labeled caspase-7 (from UniProt P55210 1-303) (enzyme)” showed a Kd [2] of 4 nM.

B1: BODIPY-labeled Smac-Cys (natural protein)
chain: AVPIAQKSEPHSLSSEALMRRAVSLVTDSTSTFLSQTTYALIEAITEYTKAVYTLTSLYRQYTSLLGKMNSEEEDEVWQVIIGARAEMTSKHQEYLKLETTWMTAVGLSEMAAEAAYQTGADQASITARNHIQLVKLQVEEVHQLSRKAETKLAEAQIEELRQKTQEEGEERAESEQEAYLREDC
modifications: BODIPY FL Maleimide on the introduced cysteine (degree of labeling 0.48)
For B1, the Kd [3] was 26 ± 2 nM, the Kd [4] was 30 ± 5 nM and the Kd [5] was < 2 nM and 2 nM. B1: binds [5].

B2: Smac-His9 (mature Smac without the N-terminal mitochondrial targeting sequence) (natural protein)
chain: AVPIAQKSEPHSLSSEALMRRAVSLVTDSTSTFLSQTTYALIEAITEYTKAVYTLTSLYRQYTSLLGKMNSEEEDEVWQVIIGARAEMTSKHQEYLKLETTWMTAVGLSEMAAEAAYQTGADQASITARNHIQLVKLQVEEVHQLSRKAETKLAEAQIEELRQKTQEEGEERAESEQEAYLRED
B2 was tested, and the binding result [6] was “binds” and the “stoichiometry N” value [7] was 2.
